This passage reports Osteopontin Adhesion (% inhibition) and Vitronectin Adhesion (% inhibition) results from patent publication US20120114667A1.

This assay deals with avb3 and avb5 integrins on A375M cells. Nature of the assay: cell-based or functional assay.

B1: 3C5 (antibody, IgG2, V domains shown)
VH: RVQLQESGPGLVKPSQTLSLTCTVSGGSIISGGYFWTWIRQHPGKGLEWIGYIYYSGSTYYSPSLKSRVTISVDTSKNQFSLKLSSVTAADTAVYYCTRAVPAAKGYYSYYGMDVWGQGTTVTVSS
VL: DIVMTQSPLSLPVTPGEPASISCRSSQSLLHSSGYNYLDWFLQKPGQSPQLLIYLSSNRASGVPDRFSGSGSGTDFTLKISRVEAEDVGVYYCMQALQTPFTFGPGTKVDIK
The molecule B1 had an Osteopontin Adhesion (% inhibition) at 5 ug/ml, A375M cells of 3% and a Vitronectin Adhesion (% inhibition) at 5 ug/ml, A375M cells of 10%.

B2: 5B11 (antibody, IgG2, V domains shown)
VH: QVQLVESGGGVVQPGRSVRLSCAASGFTFSSYGMHWVRQTPGKGLEWVAIIWYDGGIEYYADSVKGRFTISRDNSKNTLYLQMNSLRAEDTAVYYCARDHRYGSSWFDYWGQGTLVTVSS
VL: DIQMTQSPSSLSASVGDRVTITCRASQGINNYLAWFQQKPGKAPKSLIYAASSLQSGVPSNFSGSGSGTDFTLSISSLQPEDFATYYCQQYKSYPLTFGGGTKVEIR
Consider B2, for which the Osteopontin Adhesion (% inhibition) at 5 ug/ml, A375M cells is 13% and the Vitronectin Adhesion (% inhibition) at 5 ug/ml, A375M cells is 9%.
